These are literature values, as cited in PMC6156988.

The data set addresses EspFu (Escherichia coli) (UniProt P0DJ88).
Chain of UniProt P0DJ88 (P0DJ88 whole entry): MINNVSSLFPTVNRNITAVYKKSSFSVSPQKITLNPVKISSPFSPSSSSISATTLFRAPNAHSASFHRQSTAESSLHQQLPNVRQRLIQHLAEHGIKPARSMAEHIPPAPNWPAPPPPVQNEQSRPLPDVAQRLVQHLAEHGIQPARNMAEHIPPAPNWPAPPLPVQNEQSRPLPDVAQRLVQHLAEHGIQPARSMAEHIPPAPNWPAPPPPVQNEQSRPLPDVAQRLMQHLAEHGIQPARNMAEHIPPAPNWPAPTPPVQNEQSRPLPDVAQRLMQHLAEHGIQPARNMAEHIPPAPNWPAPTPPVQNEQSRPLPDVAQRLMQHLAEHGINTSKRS

For orientation: Kd means the constant that tells how readily two partners part at equilibrium. Turning to IRTKS SH3 (from UniProt Q9UHR4), the equilibrium dissociation constant (Kd) is 500 nM.
